Reference: US20180326005A1 (HEAT BIOLOGICS, published 2018)
Like-named read-outs stand apart in the source and are kept apart here.

Key:
[1] = molecular target: polyhistidine-tagged recombinant human CD47 (human) (UniProt Q08722); assay: SPR summary table, row group CD47
human FcγR1A [2] = molecular target: T1, human FcγR1A (human, UniProt P12314 16-288); assay: SPR summary table, row group FcγR1A
T1 construct: also called recombinant human FcγR1A

neonatal receptor FcRn [3] = molecular target: T2, neonatal receptor FcRn (human, UniProt P55899 24-297; P61769 21-119); assay: SPR summary table, row group FcRn
T2 construct: also called recombinant human FcRn

mouse PD-1-Fc = molecular target: T3, mouse PD-1-Fc (mouse, UniProt Q02242 25-169; P01868 98-324 = IgG part, limits assumed); assay: ELISA: plate-bound mOX40-hFc, two-fold dilutions of CHO-K1 culture medium, detection with rabbit anti-mPD-1 and anti-rabbit IgG-HRP
T3 construct: extracellular domain;domain: Fc; Control construct, tested as CHO-K1 culture medium; also called mPD-1-Fc; recombinant mouse PD1-Fc
Text: (§1) A rabbit polyclonal antibody to mPD-1 was used to detect the mPD-1 domain in the chimeric protein and subsequently detected using a horseradish peroxidase (HRP)-conjugated polyclonal antibody to rabbit IgG (H+L).
as §1, with “(H+L). […] A horseradish peroxidase (HRP)-conjugated polyclonal antibody to mouse IgG (H+L) was used for the detection of the bound proteins.” for “(H+L).”

[4] = molecular target: T4, polyhistidine-tagged recombinant human PD-L1 (human, UniProt Q9NZQ7 19-239); assay: SPR summary table, row group PD-L1
T4 construct: also called hPD-L1; not shown: polyhistidine tag
Text: (§2) Specifically, polyhistidine-tagged versions of recombinant human PD-L1, PD-L2 and human OX40 was bound to ProteOn HTG tris-NTA chips (BIORAD).

[5] = molecular target: human PD-L1 on cells (CHO-K1/hPD-L1, HCC827, PC3, HeLa-PD-L1) (human, UniProt Q9NZQ7 19-290); assay: cell-based or functional assay
neonatal receptor FcRn [6] = molecular target: T2, neonatal receptor FcRn; assay: SPR summary table, row group FcRn; the text gives 73 nM for this pair
human FcγR1A [7] = molecular target: T1, human FcγR1A; assay: SPR, chip-bound human FcγR1A, analyte in flow
[8] = molecular target: T5, polyhistidine-tagged recombinant human PD-L2 (human, UniProt Q9BQ51 20-219); assay: SPR summary table, row group PD-L2
T5 construct: not shown: polyhistidine tag
T5 sequence (looked up): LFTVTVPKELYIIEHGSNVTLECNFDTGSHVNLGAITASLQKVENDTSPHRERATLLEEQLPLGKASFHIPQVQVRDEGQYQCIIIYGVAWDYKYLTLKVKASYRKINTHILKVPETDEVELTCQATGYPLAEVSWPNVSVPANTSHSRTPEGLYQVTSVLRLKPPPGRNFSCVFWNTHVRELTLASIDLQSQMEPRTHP
Text: as §2

[9] = molecular target: T6, polyhistidine-tagged recombinant human OX40 (human, UniProt P43489 29-216); assay: SPR summary table, row group OX40
T6 construct: also called recombinant OX40-his; hOX40-his; not shown: polyhistidine tag
T6 sequence (looked up): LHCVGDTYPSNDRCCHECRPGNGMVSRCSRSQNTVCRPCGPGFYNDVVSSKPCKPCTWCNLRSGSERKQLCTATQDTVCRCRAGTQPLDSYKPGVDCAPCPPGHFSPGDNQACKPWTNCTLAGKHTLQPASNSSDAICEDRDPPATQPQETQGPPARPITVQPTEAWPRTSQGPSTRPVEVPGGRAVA
Text: as §2

neonatal receptor FcRn [10] = molecular target: T2, neonatal receptor FcRn; assay: SPR, chip-bound Fc receptor
FcγR2B = molecular target: T7, FcγR2B (human, UniProt P31994 46-217, limits assumed); assay: SPR, chip-bound Fc receptor
T7 sequence (looked up): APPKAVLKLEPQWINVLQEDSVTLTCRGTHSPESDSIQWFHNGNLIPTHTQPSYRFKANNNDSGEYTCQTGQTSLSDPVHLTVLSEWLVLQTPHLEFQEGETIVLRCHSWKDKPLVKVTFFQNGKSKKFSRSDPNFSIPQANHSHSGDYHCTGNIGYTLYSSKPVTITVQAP

[11] = molecular target: T4, polyhistidine-tagged recombinant human …; assay: SPR, his-tagged ligand on ProteOn HTG tris-NTA chip
Text: as §2
(§3) Specifically, polyhistidine-tagged versions of recombinant human CD47 and human OX40 was bound to ProteOn HTG tris-NTA chips (BIORAD).

[12] = molecular target: T5, polyhistidine-tagged recombinant human …; assay: as above
Text: as §2, §3

[13] = molecular target: T6, polyhistidine-tagged recombinant human …; assay: as above
Text: as §2, §3

[14] = molecular target: T6, polyhistidine-tagged recombinant human …; assay: SPR summary table, row group OX40; remark: listed apart in the source
Text: as §2

[15] = molecular target: T6, polyhistidine-tagged recombinant human …; assay: SPR summary table, row group OX40; remark: listed apart in the source
Text: as §3

[16] = molecular target: T8, human OX40 on cells (Jurkat/hOX40, activated human T cells) (human, UniProt P43489 29-277); assay: flow cytometry, Jurkat-hOX40 against parental Jurkat cells, Fc-Fusions: PE-A
T8 construct: whole, on cells; also called Jurkat/OX40; cell surface expressed OX40
T8 sequence (looked up): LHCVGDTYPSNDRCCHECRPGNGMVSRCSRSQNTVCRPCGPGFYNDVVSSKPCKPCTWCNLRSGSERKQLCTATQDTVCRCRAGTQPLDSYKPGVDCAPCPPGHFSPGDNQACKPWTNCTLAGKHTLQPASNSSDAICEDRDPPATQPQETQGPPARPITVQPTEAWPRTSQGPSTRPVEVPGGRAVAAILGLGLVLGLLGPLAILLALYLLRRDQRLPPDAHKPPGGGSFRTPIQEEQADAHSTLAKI

Chain of polyhistidine-tagged recombinant human CD47 (human) (Q08722 19-139 limits assumed): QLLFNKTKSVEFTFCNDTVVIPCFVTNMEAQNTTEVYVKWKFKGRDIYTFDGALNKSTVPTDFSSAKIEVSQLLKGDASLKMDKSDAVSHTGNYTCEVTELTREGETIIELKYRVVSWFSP
T4 sequence (Q9NZQ7 19-239 limits assumed): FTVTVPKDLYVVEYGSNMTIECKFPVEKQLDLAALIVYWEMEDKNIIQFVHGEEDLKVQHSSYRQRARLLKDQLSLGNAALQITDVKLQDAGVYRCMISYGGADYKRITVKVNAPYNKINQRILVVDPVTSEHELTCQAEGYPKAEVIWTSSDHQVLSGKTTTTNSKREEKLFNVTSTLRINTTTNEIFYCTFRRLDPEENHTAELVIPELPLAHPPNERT
T1 sequence (P12314 16-288 limits assumed): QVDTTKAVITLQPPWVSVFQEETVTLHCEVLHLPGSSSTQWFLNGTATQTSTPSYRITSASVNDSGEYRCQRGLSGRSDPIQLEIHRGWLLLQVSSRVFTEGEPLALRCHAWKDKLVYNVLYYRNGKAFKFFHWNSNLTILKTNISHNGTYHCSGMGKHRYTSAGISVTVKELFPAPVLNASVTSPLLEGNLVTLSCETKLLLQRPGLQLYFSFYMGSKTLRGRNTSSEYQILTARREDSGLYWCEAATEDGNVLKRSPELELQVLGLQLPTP
Chain of human PD-L1 on cells (CHO-K1/hPD-L1, HCC827, PC3, HeLa-PD-L1) (Q9NZQ7 19-290): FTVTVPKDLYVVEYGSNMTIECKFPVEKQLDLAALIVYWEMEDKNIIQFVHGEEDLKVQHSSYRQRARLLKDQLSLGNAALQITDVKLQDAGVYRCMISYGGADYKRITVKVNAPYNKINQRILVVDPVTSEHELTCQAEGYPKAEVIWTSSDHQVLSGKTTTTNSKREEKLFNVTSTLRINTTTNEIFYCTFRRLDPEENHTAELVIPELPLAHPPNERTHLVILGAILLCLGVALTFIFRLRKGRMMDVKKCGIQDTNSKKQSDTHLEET
T3 sequence (Q02242 other isoform, or with tags, fused parts or gaps limits assumed): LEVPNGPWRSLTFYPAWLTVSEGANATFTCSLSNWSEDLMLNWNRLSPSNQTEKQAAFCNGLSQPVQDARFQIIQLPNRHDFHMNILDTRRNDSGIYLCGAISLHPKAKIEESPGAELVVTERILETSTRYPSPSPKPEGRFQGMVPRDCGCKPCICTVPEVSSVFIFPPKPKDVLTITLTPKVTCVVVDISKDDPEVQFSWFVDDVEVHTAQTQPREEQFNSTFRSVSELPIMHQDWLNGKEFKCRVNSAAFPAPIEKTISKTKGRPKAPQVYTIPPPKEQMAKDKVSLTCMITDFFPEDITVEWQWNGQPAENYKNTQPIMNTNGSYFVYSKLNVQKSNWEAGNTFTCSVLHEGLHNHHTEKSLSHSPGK

**Q.** CD172a-Fc (Fc fusion) was tested. Which Kd [1] did it give?
**A.** 3.16 nM

**Q.** And the koff [1]?
**A.** 0.00239 s⁻¹

**Q.** And the kon [1]?
**A.** 756000 M⁻¹ s⁻¹

**Q.** human immunoglobulin IgG1 (antibody) was tested. Which Kd (human FcγR1A [2]) did it give?
**A.** 17.7 nM

**Q.** What about the koff (human FcγR1A [2]) of the same molecule?
**A.** 0.00044 s⁻¹

**Q.** What about the kon (human FcγR1A [2]) of the same molecule?
**A.** 24900 M⁻¹ s⁻¹

**Q.** What about the Kd (neonatal receptor FcRn [3]) of the same molecule?
**A.** 4.87 nM

**Q.** What about the koff (neonatal receptor FcRn [3]) of the same molecule?
**A.** 0.0046 s⁻¹

**Q.** And the kon (neonatal receptor FcRn [3])?
**A.** 945000 M⁻¹ s⁻¹

B1: recombinant mOX40 fused to human Fc (Fc fusion, mouse, UniProt P47741 20-211, looked up)
chain: VTARRLNCVKHTYPSGHKCCRECQPGHGMVSRCDHTRDTLCHPCETGFYNEAVNYDTCKQCTQCNHRSGSELKQNCTPTQDTVCRCRPGTQPRQDSGYKLGVDCVPCPPGHFSPGNNQACKPWTNCTLSGKQTRHPASDSLDAVCEDRSLLATLLWETQRPTFRPTTVQSTTVWPRTSELPSPPTLVTPEGP
notes: also called mOX40-hFc; not shown: human Fc
**Q.** Does B1 bind (mouse PD-1-Fc)?
**A.** no binding (tested: 1:1 (undiluted culture medium))

B2: SL-279252 (human PD-1-Fc-OX40L) (Fc fusion)
chain: LDSPDRPWNPPTFSPALLVVTEGDNATFTCSFSNTSESFVLNWYRMSPSNQTDKLAAFPEDRSQPGQDCRFRVTQLPNGRDFHMSVVRARRNDSGTYLCGAISLAPKAQIKESLRAELRVTERRAEVPTAHPSPSPRPAGQFQSKYGPPCPSCPAPEFLGGPSVFLFPPKPKDTLMISRTPEVTCVVVDVSQEDPEVQFNWYVDGVEVHNAKTKPREEQFNSTYRVVSVLTVLHQDWLSGKEYKCKVSSKGLPSSIEKTISNATGQPREPQVYTLPPSQEEMTKNQVSLTCLVKGFYPSDIAVEWESNGQPENNYKTTPPVLDSDGSFFLYSRLTVDKSSWQEGNVFSCSVMHEALHNHYTQKSLSLSLGKIEGRMDQVSHRYPRIQSIKVQFTEYKKEKGFILTSQKEDEIMKVQNNSVIINCDGFYLISLKGYFSQEVNISLHYQKDEEPLFQLKKVRSVNSLMVASLTYKDKVYLNVTTDNTSLDDFHVNGGELILIHQNPGEFCVL
notes: Glycosylated; about 50% of the non-reduced protein ran as a dimer; also called hPD-1-Fc-OX40L
**Q.** With B2 as the molecule, how does the koff [4] read?
**A.** 0.000176 s⁻¹

**Q.** And the kon [4]?
**A.** 84500 M⁻¹ s⁻¹

**Q.** What about the koff (neonatal receptor FcRn [3]) of the same molecule?
**A.** 0.00234 s⁻¹

**Q.** And the kon (neonatal receptor FcRn [3])?
**A.** 255000 M⁻¹ s⁻¹

**Q.** What about the “increase in IL-2 from baseline (no SL-279252) to 5 ug/mL of SL-279252, T cell co-culture with HCC827 (PD-L1high)” value [5] of the same molecule?
**A.** 1.92 fold

**Q.** What about the “increase in IL-2 from baseline (no SL-279252) to 5 ug/mL of SL-279252, T cell co-culture with PC3 (PD-L1low)” value [5] of the same molecule?
**A.** 1.27 fold

**Q.** And the Kd (neonatal receptor FcRn [6])?
**A.** 9.17 nM

**Q.** Does B2 bind (human FcγR1A [7])?
**A.** no binding (tested: 500 nM)

**Q.** And the koff [8]?
**A.** 6.7e-05 s⁻¹

**Q.** What about the kon [8] of the same molecule?
**A.** 54000 M⁻¹ s⁻¹

**Q.** And the koff [9]?
**A.** 1.9e-05 s⁻¹

**Q.** What about the kon [9] of the same molecule?
**A.** 77300 M⁻¹ s⁻¹

**Q.** What about the Kd (neonatal receptor FcRn [10]) of the same molecule?
**A.** 73 nM

**Q.** Does B2 bind (FcγR2B)?
**A.** no binding

**Q.** What about the Kd [11] of the same molecule?
**A.** 2.08 nM

**Q.** And the “off-rate, fold slower than recombinant PD-1-Fc” value [11]?
**A.** ~20 fold

**Q.** And the Kd [12]?
**A.** 1.24 nM

**Q.** What about the Kd [13] of the same molecule?
**A.** 0.246 nM

B3: recombinant human OX40L-Fc (Fc fusion, UniProt P23510 51-183, looked up)
chain: QVSHRYPRIQSIKVQFTEYKKEKGFILTSQKEDEIMKVQNNSVIINCDGFYLISLKGYFSQEVNISLHYQKDEEPLFQLKKVRSVNSLMVASLTYKDKVYLNVTTDNTSLDDFHVNGGELILIHQNPGEFCVL
notes: Positive control in SPR; not shown: Fc
**Q.** What does the source list for B3?
**A.** Kd [14]: 9.28 nM; koff [14]: 0.00069 s⁻¹; Kd [9]: 9.28 nM; koff [9]: 0.00069 s⁻¹; Kd [15]: 9.28 nM; koff [15]: 0.00069 s⁻¹

B4: human PD1-Fc-TL1A (Fc fusion)
chain: LDSPDRPWNPPTFSPALLVVTEGDNATFTCSFSNTSESFVLNWYRMSPSNQTDKLAAFPEDRSQPGQDCRFRVTQLPNGRDFHMSVVRARRNDSGTYLCGAISLAPKAQIKESLRAELRVTERRAEVPTAHPSPSPRPAGQFQSKYGPPCPSCPAPEFLGGPSVFLFPPKPKDTLMISRTPEVTCVVVDVSQEDPEVQFNWYVDGVEVHNAKTKPREEQFNSTYRVVSVLTVLHQDWLSGKEYKCKVSSKGLPSSIEKTISNATGQPREPQVYTLPPSQEEMTKNQVSLTCLVKGFYPSDIAVEWESNGQPENNYKTTPPVLDSDGSFFLYSRLTVDKSSWQEGNVFSCSVMHEALHNHYTQKSLSLSLGKIEGRMDRAQGEACVQFQALKGQEFAPSHQQVYAPLRADGDKPRAHLTVVRQTPTQHFKNQFPALHWEHELGLAFTKNRMNYTNKFLLIPESGDYFIYSQVTFRGMTSECSEIRQAGRPNKPDSITVVITKVTDSYPEPTQLLMGTKSVCEVGSNWFQPIYLGAMFSLQEGDKLMVNVSDISLVDYTKEDKTFFGAFLL
notes: The entry includes the native leader; no cleavage site is stated; also called hPD1-Fc-TL1A
**Q.** Does B4 bind [16]?
**A.** no binding
